Source: US9850293B2, “Targeting trastuzumab-resistant HER2+ breast cancer with a HER3-targeting nanoparticle” (priority 2014, dated 2017)
“Also recorded” adds a separate entry of the source.

How the values were obtained:
[1] = HerDox stability in serum-containing media; assay type: in vitro ADME; settings: 10% fetal bovine serum media, 37° C.
Procedure: FIG. 6 (B) mimics extended exposure of HerDox to cells in culture medium. HerDox immobilized on Ni-NTA beads were incubated with bovine serum in DMEM for the indicated times at 37° C. before each sample was pelleted. […] Relative Dox release or retention in serum is expressed as normalized to control (corresponding sample lacking serum). N=3 per time point.
The inventors tested the stability of HerDox over 12 days under different storage temperatures: 40° C., room temperature, or 37° C. […] The inventors also examined HerDox stability in serum-containing media at 37° C. […] Dox retention in the conjugate was also assessed by eluting the conjugate from the beads at each time point.

HER2+ tumors = assay: HerDox and Dox biodistribution (Dox fluorescence imaging)
Excerpt: FIG. 11 (A) depicts imaging of live mice after IV delivery of HerDox. Tumors are indicated by arrows.

SKBR3 parental cells = assay: Tumor cell killing in culture; assay type: cell-based, human
Procedure: FIG. 21 depicts graph that show the results of the administration of HerDox on various cells. […] N=3. *=p<0.05 compared to parental. […] N=3.
N=3. *, p<0.05 compared to parental. […] N=3. […] Parental and resistant cell lines were treated with HerDox−/+HER3 blocking peptide (ErbB3 human; Prospec), and tested for cell survival 48 hours later. […] Treatments were compared to mock (saline)-treatment. […] N=3. *, p<0.05 compared to parental. […] N=3.
Parental cell lines were pre-treated with 0.5 mg/mL Tz for 24 hours before testing these cells for surface HER3 levels. […] Parental cell lines were pre-treated with 0.5 mg/mL Tz for 24 hours before testing these cells for HerPBK10 binding. […] SKBR3 Parental cells were treated with Tz at indicated concentrations (see upper X-axes) 4 and 24 hours before HerDox treatment and assayed for survival at 48-72 h after treatment. N=3. […] SK-474 Parental cells were treated with Tz at indicated concentrations (see upper X-axes) 4 and 24 hours before HerDox treatment and assayed for survival at 48-72 h after treatment. N=3. […] MDA-MB-435 non-resistant cells were treated with Tz at indicated concentrations (see upper X-axes) 4 and 24 hours before HerDox treatment and assayed for survival at 48-72 h after treatment. […] N=3. […] Tz-resistant cells were treated with Tz at indicated concentrations (see upper X-axes) 4 and 24 hours before HerDox treatment and assayed for survival at 48-72 h after treatment. N=3.
Each therapeutic was administered at concentration ranges previously established for eliciting therapeutic efficacy.
Previous studies have shown that HER3 is transcriptionally and translationally elevated as soon as 4 hours after HER2 inhibition, either by lapatinib or gene silencing. […]

[2] = single tail vein injection, live imaging
[3] = tissues harvested ~3 h after injection

B1: HerDox: non-covalent complex of HerPBK10, double-stranded oligonucleotide and intercalated Dox (Unit A+Unit B+Unit C) (conjugate)
chain: SHLVKCAEKEKTFCVNGGECFMVKDLSNPSRYLCKCQPGFTGARCTENVPMKVQNQEKAEELYQKMRRAAMYEEGPPPSYESVVSAAPVAAALGSPFDAPLDPPFVPPRYLRPTGGRNSIRYSELAPLFDTTRVYLVDNKSTDVASLNYQNDHSNFLTTVIQNNDYSPGEASTQTINLDDRSHWGGDLKTILHTNMPNVNEFMFTNKFKARVMVSRLPTKDNQVELKYEWVEFTLPEGNYSETMTIDLMNNAIVEHYLKVGRQNGVLESDIGVKFDTRNFRLGFDPVTGLVMPGVYTNEAFHPDIILLPGCGVDFTHSRLSNLLGIRKRQPFQEGFRITYDDLEGGNIPALLDVDAYQASLKDDTEQGGGGAGGSNSSGSGAEENSNAAAAAMQPVEDMNDHAIRGDTFATRAEEKRAEAEAAAEAAAPAAQPEVEKPQKKPVIKPLTEDSKKRSYNLISNDSTFTQYRSWYLAYNYGDPQTGIRSWTLLCTPDVTCGSEQVYWSLPDMMQDPVTFRSTRQISNFPVVGAELLPVHSKSFYNDQAVYSQLIRQFTSLTHVFNRFPENQILARPPAPTITTVSENVPALTDHGTLPLRNSIGGVQRVTITDARRRTCPYVYKALGIVSPRVLSSRTFKKKKKKKKKK
modifications: left off: small tags and cut ends
For B1, the “Dox release from conjugate in serum” value [1] was “no significant release of Dox”, the “Dox retention by conjugate in serum” value ([1]; each time point) was “completely retained” and the “time fluorescence remained detectable in the tumors” value (HER2+ tumors; [2]) was “up to 100 min”. For the same molecule, the “time of fluorescence accumulation at the tumors” value (HER2+ tumors; [2]) was no more than 20 min, the fluorescence in kidneys (HER2+ tumors; [3]) was “barely detectable” and the fluorescence in liver (HER2+ tumors; [3]) was “substantially lower levels of fluorescence”. For the same molecule, the “fluorescence in other tissues (heart, spleen, lungs, skeletal muscle)” value (HER2+ tumors; [3]) was “did not exhibit any fluorescence”, the fluorescence in tumors (HER2+ tumors; [3]) was “intense fluorescence in the tumors” and the “response of parental SKBR3 cells” value (SKBR3 parental cells; 48-72 h after treatment) was “improved cell killing compared to trastuzumab; also recorded: improved cell killing compared to Tz”. The cell death (SKBR3 parental cells; parental SKBR3, 48-72 h after treatment) was 50% and the “further augmentation of HerDox toxicity by trastuzumab pre-treatment” value (SKBR3 parental cells; parental SKBR3, Tz 4 or 24 hours before HerDox, highest doses tested) was 40-50%.
